Reference: patent US20240254222A1

Biological target: Human Semaphorin3G (Abnova) (human) (UniProt Q9NS98)
Assay: ELISA, coated GST-Sema3G, antibody 0.00015-10 ug/ml

Chain of Human Semaphorin3G (Abnova) (human) (Q9NS98 23-782 limits assumed, form in doubt): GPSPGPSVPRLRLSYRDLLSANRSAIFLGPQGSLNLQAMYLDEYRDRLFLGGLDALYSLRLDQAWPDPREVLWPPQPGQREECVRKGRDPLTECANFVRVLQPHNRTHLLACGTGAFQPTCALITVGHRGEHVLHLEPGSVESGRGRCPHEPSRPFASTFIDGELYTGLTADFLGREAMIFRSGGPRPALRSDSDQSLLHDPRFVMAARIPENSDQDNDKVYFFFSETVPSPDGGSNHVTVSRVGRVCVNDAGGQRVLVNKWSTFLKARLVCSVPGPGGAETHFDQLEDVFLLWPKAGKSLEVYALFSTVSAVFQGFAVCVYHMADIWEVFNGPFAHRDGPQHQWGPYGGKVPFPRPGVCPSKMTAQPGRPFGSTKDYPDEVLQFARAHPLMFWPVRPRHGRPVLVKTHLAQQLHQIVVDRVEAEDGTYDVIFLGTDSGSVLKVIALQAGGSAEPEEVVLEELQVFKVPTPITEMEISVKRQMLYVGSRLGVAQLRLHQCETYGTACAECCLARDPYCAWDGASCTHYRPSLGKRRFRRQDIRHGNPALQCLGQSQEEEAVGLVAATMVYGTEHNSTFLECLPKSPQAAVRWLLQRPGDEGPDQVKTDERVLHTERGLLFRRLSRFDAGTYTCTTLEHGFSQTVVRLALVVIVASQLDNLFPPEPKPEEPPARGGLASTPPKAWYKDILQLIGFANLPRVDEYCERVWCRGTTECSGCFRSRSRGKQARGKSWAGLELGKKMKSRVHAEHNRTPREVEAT

Binder | EC50 [µM]
TPP-30789 (antibody, human IgG1, kappa, V domains shown) VH: EVQLVESGGGLVQPGGSLRLSCAASGFPFSSYYMSWVRQAPGKGLEWVSTIIKSGGYAYYPDSVKDRFTISRDNSKNTLYLQMSSLRAEDTAVYYCVRGGQGAMDYWGQGTTVTVSS VL: EIVLTQSPATLSLSPGERATLSCRASQSIGDYLHWYQQKPGQAPRLLIKYASQSISGIPARFSGSGSGTDFTLTITSLEPEDFAVYYCQQGYSFPYTFGGGTKLEIKR | > 66.7
TPP-30788 (antibody, human IgG1, kappa, V domains shown) VH: EVQLVESGGGLVQPGGSLRLSCAASGFTFSSYYMSWVRQAPGKGLEWVSTIIKSGGYAYYPDSVKDRFTISRDNSKNTLYLQMSSLRAEDTAVYYCVRGGQGAMDYWGQGTTVTVSS VL: EIVLTQSPATLSLSPGERATLSCRASQSIGDYLHWYQQKPGQAPRLLIKYASQSISGIPARFSGSGSGTDFTLTITSLEPEDFAVYYCQQGYSFPYTFGGGTKLEIKR | > 66.7

Other lines, results leading:

EC50 [µM] | Binder
> 66.7 | TPP-30791 (antibody, human IgG1, kappa, V domains shown) VH: EVQLVESGGGLLQLGGSLRLSCAASGFTFSSYYMSWVRQAPGKGLEWVSTIIKSGGYAYYPDSVKDRFTISRDNSKNTLNLQMNSLRAEDTAVYYCVKGGQGAMDYWGQGTTVTVSS VL: EIVLTQSPATLSLSPGERATLSCRASQSIGDYLHWYQQKPGQAPRLLIKYASQSISGIPARFSGSGSGTDFTLTISSLEPEDFAVYYCQQGYSFPYTFGGGTKLEIKR
> 66.7 | TPP-30790 (antibody, human IgG1, kappa, V domains shown) VH: EVQLVESGGGLVQLGGSLRLSCAASGFTFSSYYMSWVRQAPGKGLEWVSTIIKSGGYAYYPDSVKDRFTISRDNSKNTLYLQMNSLRAEDTAVYYCVKGGQGAMDYWGQGTTVTVSS VL: EIVLTQSPATLSLSPGERATLSCRASQSIGDYLHWYQQKPGQAPRLLIYYASQSISGIPARFSGSGSGTDFTLTISSLEPEDFAVYYCQQGYSFPYTFGGGTKLEIKR
